# Test results as given in patent US20020002269A1, “ARTEMIN, A NEUROTROPHIC FACTOR” (priority 1998, published 2002).
# Target: T1, GFRα3-Fc (Homo sapiens, UniProt O60609)
# T1 construct: purchased R&D Systems
# Assay: Direct binding of soluble GFRα3-Fc receptor body to plate-coated ligand
# Conditions: ligand coated at 325 ng/ml, absence of RET, FIG. 9E
# Experimental: To investigate which if any of the known coreceptor(s) artemin can utilize to activate RET, its ability to directly bind to soluble Fc-fusion forms of GFRα1, GFRα2, or GFRα3 was assessed. GFRα1-Fc, GFRα2-Fc and GFRα3-Fc fusion proteins were obtained from R&D Systems. Binding assays were performed similarly to assays previously described (Sanicola et al., Proc. Natl. Acad. Sci., USA 94:6238-6243, 1997). Recombinant GDNF, neurturin, artemin, persephin, or purified bovine serum albumin (BSA; Pierce) were coated to Nunc-Immuno MaxiSorp microtiter plates at 325 ng/ml in TBS (10 mM Tris-HCl pH 7.5, 150 mM NaCl) for 1 hour at 25° C. Plates were washed (3× in TBS/0.03% Tween-20), and then blocked (blocking solution: TBS/1% BSA) for 1 hr at 25° C. Receptor bodies diluted in blocking solution were added and incubated for 2 hr at 25° C., washed 5X, then incubated with 1:10,000 dilution of HRP-conjugated anti-human Fc antibodies in blocking solution (Jackson Immunoresearch) for 45 minutes at 25° C. […] The reaction was stopped by adding an equal volume of 0.5M H2SO4, and color was measured in a plate reader at 450 nm. Non-specific binding of receptor bodies to the plates was measured in BSA coated wells, and this binding was subtracted from all other measurements.
# T1 sequence (O60609 with tags, fused parts or gaps limits assumed): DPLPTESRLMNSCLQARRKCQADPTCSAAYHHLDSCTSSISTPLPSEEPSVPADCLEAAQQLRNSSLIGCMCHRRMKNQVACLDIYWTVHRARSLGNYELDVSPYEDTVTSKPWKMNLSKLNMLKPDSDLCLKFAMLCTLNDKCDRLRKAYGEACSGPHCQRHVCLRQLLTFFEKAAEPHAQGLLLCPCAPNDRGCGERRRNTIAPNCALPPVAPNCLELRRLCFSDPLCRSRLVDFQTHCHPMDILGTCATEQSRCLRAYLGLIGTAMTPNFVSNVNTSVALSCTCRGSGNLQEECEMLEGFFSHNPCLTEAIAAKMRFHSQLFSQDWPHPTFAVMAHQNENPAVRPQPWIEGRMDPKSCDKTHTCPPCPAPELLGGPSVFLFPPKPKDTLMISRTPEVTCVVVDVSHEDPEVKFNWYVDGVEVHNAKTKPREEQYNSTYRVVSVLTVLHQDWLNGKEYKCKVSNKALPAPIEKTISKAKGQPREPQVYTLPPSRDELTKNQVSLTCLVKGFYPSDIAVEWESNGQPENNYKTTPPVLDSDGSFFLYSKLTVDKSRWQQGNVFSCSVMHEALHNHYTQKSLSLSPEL
substance,measurement,value
"artemin: recombinant mature human artemin (FIG. 3A, SEQ ID NO:3) with 8-histidine tag, produced in E. coli; GDNF family neurotrophic factor",direct binding of GFRα3-Fc,able to bind to artemin
